The record followed here is patent US20020151484A1 (HYBRIGENICS, published 2002).

Holding throughout (assay): yeast two-hybrid, mating, His3/LacZ reporters
Test [1] addresses T1, SID polypeptide of SEQ ID No 8, NS4A (59%)/NS4B (40%), HCV strain H77 nt 5375-5542 (hepatitis C virus strain H77, UniProt P27958 1679-1732).
T1 construct: Intersection of yeast two-hybrid prey fragments; also called SID NS4A (59%)/NS4B (40%)
T1 sequence: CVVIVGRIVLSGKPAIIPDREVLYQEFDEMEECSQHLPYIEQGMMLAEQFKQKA

Test [2] addresses T2, Bait polypeptide of SEQ ID No 84, NS3 (100%), HCV strain H77 nt 3767-4244 (hepatitis C virus strain H77, UniProt P27958 1143-1300).
T2 construct: also called Bait NS3 (100%)
T2 chain: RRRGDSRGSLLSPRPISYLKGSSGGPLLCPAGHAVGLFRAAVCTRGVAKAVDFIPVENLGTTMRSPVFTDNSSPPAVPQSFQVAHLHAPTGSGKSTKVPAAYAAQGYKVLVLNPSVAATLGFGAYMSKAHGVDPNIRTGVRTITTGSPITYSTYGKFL

The target in test [3] is T3, Bait polypeptide of SEQ ID No 79, E1 (100%), HCV strain H77 nt 995-1342 (hepatitis C virus strain H77, UniProt P27958 219-332).
T3 construct: also called Bait E1 (100%)
T3 chain: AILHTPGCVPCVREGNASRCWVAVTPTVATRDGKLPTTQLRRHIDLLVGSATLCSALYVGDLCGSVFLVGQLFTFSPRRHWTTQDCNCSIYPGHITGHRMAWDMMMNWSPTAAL

In test [4] the target is T4, SID polypeptide of SEQ ID No 30, NS4B (100%), HCV strain H77 nt 6029-6194 (hepatitis C virus strain H77, UniProt P26664 1897-1950).
T4 construct: Intersection of yeast two-hybrid prey fragments; also called SID NS4B (100%)
T4 sequence: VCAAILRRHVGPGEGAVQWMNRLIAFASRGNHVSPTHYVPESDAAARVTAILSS

Test [5] concerns the target T5, SID polypeptide of SEQ ID No 31, NS5B (100%), HCV strain H77 nt 8354-8665 (hepatitis C virus strain H77, UniProt P26664 2672-2773).
T5 construct: Intersection of yeast two-hybrid prey fragments; also called SID NS5B (100%)

In test [6] the target is T6, Bait polypeptide of SEQ ID No 107, NS5B (100%), HCV strain H77 nt 7838-8743 (hepatitis C virus strain H77, UniProt P26664 2500-2799).
T6 construct: also called Bait NS5B (100%)

For test [7], the target named is T7, Bait polypeptide of SEQ ID No 111, NS5B (100%), HCV strain H77 nt 8708-8978 (hepatitis C virus strain H77, UniProt P27958 2790-2878).
T7 construct: also called Bait NS5B (100%)

Test [8] deals with T8, SID polypeptide of SEQ ID No 29, NS3 (100%), HCV strain H77 nt 4451-4790 (hepatitis C virus strain H77, UniProt P27958 1371-1482).
T8 construct: Intersection of yeast two-hybrid prey fragments; also called SID NS3 (100%)
T8 sequence: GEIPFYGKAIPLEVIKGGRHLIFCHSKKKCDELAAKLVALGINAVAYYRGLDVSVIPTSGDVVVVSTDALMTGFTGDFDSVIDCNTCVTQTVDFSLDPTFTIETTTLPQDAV

Test [9] addresses T9, Bait polypeptide of SEQ ID No 109, NS5B (100%), HCV strain H77 nt 7976-8759 (hepatitis C virus strain H77, UniProt P26664 2546-2805).
T9 construct: also called Bait NS5B (100%)

Test [10] has as its target T10, Bait polypeptide of SEQ ID No 112, NS5B (100%), HCV strain H77 nt 8996-9220 (hepatitis C virus strain H77, UniProt Q03463 2886-2958).
T10 construct: also called Bait NS5B (100%)

The target of test [11] is T11, Bait polypeptide of SEQ ID No 80, E1 (4%)/E2 (95%), HCV strain H77 nt 1478-1756 (hepatitis C virus strain H77, UniProt P27958 380-470).
T11 construct: also called Bait E1 (4%)/E2 (95%)

In test [12] the target is T12, SID polypeptide of SEQ ID No 33, NS3 (100%), HCV strain H77 nt 4715-4901 (hepatitis C virus strain H77, UniProt P27958 1459-1519).
T12 construct: Intersection of yeast two-hybrid prey fragments; also called SID NS3 (100%)
T12 sequence: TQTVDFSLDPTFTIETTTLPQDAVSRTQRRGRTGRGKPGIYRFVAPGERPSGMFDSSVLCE

B1: Bait polypeptide of SEQ ID No 83, NS2 (12%)/NS3 (87%), HCV strain H77 nt 3312-4150 (other)
chain: AACGDIINGLPVSARRGQEILLGPADGMVSKGWRLLAPITAYAQQTRGLLGCIITSLTGRDKNQVEGEVQIVSTATQTFLATCINGVCWTVYHGAGTRTIASPKGPVIQMYTNVDQDLVGWPAPQGSRSLTPCTCGSSDLYLVTRHADVIPVRRRGDSRGSLLSPRPISYLKGSSGGPLLCPAGHAVGLFRAAVCTRGVAKAVDFIPVENLGTTMRSPVFTDNSSPPAVPQSFQVAHLHAPTGSGKSTKVPAAYAAQGYKVLVLNPSVAATLGFGAYM
notes: also called Bait NS2 (12%)/NS3 (87%)
In the case of B1, the binding result in test [1] is listed as “binds”.

B2: SID polypeptide of SEQ ID No 9, NS3 (100%), HCV strain H77 nt 4676-4801 (other)
chain: GDFDSVIDCNTCVTQTVDFSLDPTFTIETTTLPQDAVSRT
notes: Intersection of yeast two-hybrid prey fragments; also called SID NS3 (100%)
For the molecule B2, the binding result in test [2] is given as “binds”.

B3: SID polypeptide of SEQ ID No 4, E2 (100%), HCV strain H77 nt 1871-1987 (other)
chain: PSPVVVGTTDRSGAPTYSWGANDTDVFVLNNTRPPLG
notes: Intersection of yeast two-hybrid prey fragments; also called SID E2 (100%)
For B3, the binding result in test [3] is given as “binds”.

B4: Bait polypeptide of SEQ ID No 105, NS5A (100%), HCV strain H77 nt 7274-7549 (other)
chain: HGCPLPPPRSPPVPPPRKKRTVVLTESTLSTALAELATKSFGSSSTSGITGDNTTTSSEPAPSGCPPDSDVESYSSMPPLEGEPGDPDLS
notes: also called Bait NS5A (100%)
For B4, the binding result in [4] is on record as “binds”.

B5: Bait polypeptide of SEQ ID No 106, NS5B (100%), HCV strain H77 nt 7613-8027 (other)
chain: not shown
notes: also called Bait NS5B (100%)
Regarding B5, the binding result in test [5] is listed as “binds”.

B6: SID polypeptide of SEQ ID No 32, NS5B (100%), HCV strain H77 nt 7769-8011 (other)
chain: not shown
notes: Intersection of yeast two-hybrid prey fragments; also called SID NS5B (100%)
For the molecule B6, the binding result in test [6] is given as “binds”.

B7: SID polypeptide of SEQ ID No 36, E2 (100%), HCV strain H77 nt 1751-1865 (other)
chain: PISYANGSGLDERPYCWHYPPRPCGIVPAKSVCGPVY
notes: as for B3
As to B7, in [7], the binding result is listed as “binds”.

B8: Bait polypeptide of SEQ ID No 104, NS5A (100%), HCV strain H77 nt 7019-7249 (other)
chain: IEANLLWRQEMGGNITRVESENKVVILDSFDPLVAEEDEREVSVPAEILRKSRRFARALPVWARPDYNPPLVETW
notes: also called Bait NS5A (100%)
For B8, in [8], the binding result was “binds”.

B9: SID polypeptide of SEQ ID No 34, NS5B (100%), HCV strain H77 nt 7775-8011 (other)
chain: not shown
notes: as for B6
As for B9, the binding result in test [9] is “binds”.

B10: SID polypeptide of SEQ ID No 37, NS4B (57%)/NS5A(41%), HCV strain H77 nt 6194-6303 (other)
chain: TVTQLLRRLHQWISSECTTPCSGSWLRDIWDWICE
notes: Intersection of yeast two-hybrid prey fragments; also called SID NS4B (57%)/NS5A(41%)
B10: the binding result in [10] was “binds”.

B11: SID polypeptide of SEQ ID No 5, NS3 (100%), HCV strain H77 nt 4787-5242 (other)
chain: SRTQRRGRTGRGKPGIYRFVAPGERPSGMFDSSVLCECYDAGCAWYELTPAETTVRLRAYMNTPGLPVCQDHLEFWEGVFTGLTHIDAHFLSQTKQSGENFPYLVAYQATVCARAQAPPPSWDQMWKCLIRLKPTLHGPTPLLYRLGAVQ
notes: as for B2
Take B11: in test [11], the binding result is on record as “binds”.

B12: Bait polypeptide of SEQ ID No 108, NS5B (100%), HCV strain H77 nt 7856-8458 (other)
chain: not shown
notes: also called Bait NS5B (100%)
As for B12, the binding result in [12] is “binds”.
